Read-outs that look alike come from different tables or passages of the source.
T1: mouse MSLN protein (mouse, UniProt Q61468 298-600)
T1 construct: whole, on cells; also called full-length mouse MSLN
T1 sequence (looked up): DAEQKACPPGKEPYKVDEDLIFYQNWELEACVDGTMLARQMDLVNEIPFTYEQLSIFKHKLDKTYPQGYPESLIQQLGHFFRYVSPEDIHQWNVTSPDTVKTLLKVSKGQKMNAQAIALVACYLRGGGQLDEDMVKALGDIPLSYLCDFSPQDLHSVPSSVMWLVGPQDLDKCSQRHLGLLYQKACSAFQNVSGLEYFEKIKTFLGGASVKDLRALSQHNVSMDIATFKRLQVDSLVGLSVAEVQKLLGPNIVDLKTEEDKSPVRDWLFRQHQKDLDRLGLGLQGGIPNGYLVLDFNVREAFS


What was measured:
[1] = molecular target: T2, human CDH3 (Cadherin-3, P-Cadherin) (human, UniProt P22223 108-829); test: cell-based or functional assay
[2] = molecular target: human MSLN (mesothelin) (human, UniProt Q13421 37-598); test: cell-based or functional assay
[3] = molecular target: T1, mouse MSLN protein; test: flow cytometry on transfected CHO cells
[4] = molecular target: T2, human CDH3 (Cadherin-3, P-Cadherin); test: cell-based or functional assay; remark: listed apart in the source
[5] = molecular target: T2, human CDH3 (Cadherin-3, P-Cadherin); test: cell-based or functional assay; remark: listed apart in the source
[6] = molecular target: T2, human CDH3 (Cadherin-3, P-Cadherin); test: cell-based or functional assay; remark: listed apart in the source
[7] = molecular target: T2, human CDH3 (Cadherin-3, P-Cadherin); test: cell-based or functional assay; remark: listed apart in the source
[8] = molecular target: T2, human CDH3 (Cadherin-3, P-Cadherin); test: cell-based or functional assay; remark: listed apart in the source
[9] = molecular target: T2, human CDH3 (Cadherin-3, P-Cadherin); test: cell-based or functional assay; remark: listed apart in the source
[10] = molecular target: T2, human CDH3 (Cadherin-3, P-Cadherin); test: cell-based or functional assay; remark: listed apart in the source

| Binder | cytotoxicity EC50, GSU KO MSLN cells [1] | cytotoxicity EC50, GSU KO CDH3 cells [2] | binding result [3] | cytotoxicity EC50, HCT 116 KO MSLN cells [4] | cytotoxicity EC50, GSU KO MSLN cells [5] | cytotoxicity EC50, E:T ratio 1:1, GSU KO MSLN cells [6] | cytotoxicity EC50, E:T ratio 1:2, GSU KO MSLN cells [6] | cytotoxicity EC50, E:T ratio 10:1, GSU KO MSLN cells [6] | cytotoxicity EC50, GSU KO MSLN cells [7] | cytotoxicity EC50, GSU KO MSLN cells [8] | cytotoxicity EC50, HCT 116 KO MSLN cells [9] | cytotoxicity EC50, HCT 116 KO MSLN cells [10] |
| --- | --- | --- | --- | --- | --- | --- | --- | --- | --- | --- | --- | --- |
| MS 15-B12 CC × 6H10.09 × (G4) × heFc (A) * heFc (B) × (G4) × CH3 15-E11 CC × 6H10.09 (bispecific antibody) chain 1: not shown chain 2: DKTHTCPPCPAPELLGGPSVFLFPPKPKDTLMISRTPEVTCVVVDVSHEDPEVKFNWYVDGVEVHNAKTKPCEEQYGSTYRCVSVLTVLHQDWLNGKEYKCKVSNKALPAPIEKTISKAKGQPREPQVYTLPPSRKEMTKNQVSLTCLVKGFYPSDIAVEWESNGQPENNYKTTPPVLKSDGSFFLYSKLTVDKSRWQQGNVFSCSVMHEALHNHYTQKSLSLSPGKGGGGQVQLVQSGAEVKKPGASVKVSCKASGYTFTNYWMNWVRQAPGQCLEWMGNIAYGVKGTNYNQKFQGRVTMTVDTSSSTAYMELSRLRSDDTAVYYCATRYFYVMDYWGQGTLVTVSSGGGGSGGGGSGGGGSDIQMTQSPSSLSASVGDRVTITCRASQDISNYLNWYQQKPGKVPKLLIYYTSRLHSGVPSRFSGSGSGTDFTLTISSLQPEDVATYYCVQYAQFPLTFGCGTKVEIKSGGGGSEVQLVESGGGLVQPGGSLKLSCAASGFTFNKYAMNWVRQAPGKGMEWVARIRSKYNNYATYYADAVKDRFTISRDDSKNTLYLQMNNLKTEDTAVYYCVRAGNFGSSYISYFAYWGQGTLVTVSSGGGGSGGGGSGGGGSQTVVTQEPSLTVSPGGTVTITCGSSTGAVTSGNYPNWIQKKPGQAPRGLIGGTKFLAPGTPARFSGSLEGGKAALTLSGVQPEDEAEYYCVLYYSNRWVFGSGTKLTVL | 0.533 nM | 0.391 nM |  |  |  |  |  |  |  |  |  |  |
| CH3 15-E11 VAG CC×I2L×G4×scFc×MS 15-B12 CC×I2L clipopt ID (SEQ ID NO 434) (bispecific antibody, single-chain multitargeting CDH3 x CD3 - scFc - MSLN x CD3 engager; also called K3T) QVQLVQSGAEVKKPGASVKVSCKASGYTFTNYWMNWVRQAPGQCLEWMGNIAYGVAGTNYNQKFQGRVTMTVDTSSSTAYMELSRLRSDDTAVYYCATRYFYVMDYWGQGTLVTVSSGGGGQGGGGQGGGGQDIQMTQSPSSLSASVGDRVTITCRASQDISNYLNWYQQKPGKVPKLLIYYTSRLHSGVPSRFSGSGSGTDFTLTISSLQPEDVATYYCVQYAQFPLTFGCGTKVEIKSGGGGQEVQLVESGGGLVQPGGSLKLSCAASGFTFNKYAMNWVRQAPGKGMEWVARIRSKYNNYATYYADAVKDRFTISRDDSKNTLYLQMNNLKTEDTAVYYCVRAGNFGSSYISYFAYWGQGTLVTVSSGGGGQGGGGQGGGGQQTVVTQEPSLTVSPGGTVTITCGSSTGAVTSGNYPNWIQKKPGQAPRGLIGGTKFLAPGTPARFSGSLEGGKAALTLSGVQPEDEAEYYCVLYYSNRWVFGSGTKLTVLGGGGCPPCPAPELLGGPSVFLFPPKPKDTLMISRTPEVTCVVVDVSHEEPEVKFNWYVDGVEVHNAKTKPCEEQYGSTYRCVSVLTVLHQDWLNGKEYKCKVSNKALPAPIEKTISKAKGQPREPQVYTLPPSREEMTKNQVSLTCLVKGFYPSDIAVEWESNGQPENNYKTTPPVLDSDGSFFLYSKLTVDKSRWQQGNVFSCSVMHEALHNHYTQKSLSLSPGKGGGGQGGGGQGGGGQGGGGQGGGGQGGGGQCPPCPAPELLGGPSVFLFPPKPKDTLMISRTPEVTCVVVDVSHEEPEVKFNWYVDGVEVHNAKTKPCEEQYGSTYRCVSVLTVLHQDWLNGKEYKCKVSNKALPAPIEKTISKAKGQPREPQVYTLPPSREEMTKNQVSLTCLVKGFYPSDIAVEWESNGQPENNYKTTPPVLDSDGSFFLYSKLTVDKSRWQQGNVFSCSVMHEALHNHYTQKSLSLSPGKGGGGQVQLQESGPGLVKPSETLSLTCTVSGGSISSSSYFWGWIRQPPGKCLEWIGNIYYSGSSNYNPSLKSRVTISVDTSKNQFSLKLSSVTAADTAVYYCARLPRGDRDAFDIWGQGTMVTVSSGGGGQGGGGQGGGGQDIVMTQSPSSLSASVGDRVTITCRASQGISNYLAWYQQKPGKVPKLLIYAASTLQSGVPSRFSGSGSGTDFTLTISSLQPEDFATYYCQQSYSTPFTFGCGTKVEIKSGGGGQEVQLVESGGGLVQPGGSLKLSCAASGFTFNKYAMNWVRQAPGKGMEWVARIRSKYNNYATYYADAVKDRFTISRDDSKNTLYLQMNNLKTEDTAVYYCVRAGNFGSSYISYFAYWGQGTLVTVSSGGGGQGGGGQGGGGQQTVVTQEPSLTVSPGGTVTITCGSSTGAVTSGNYPNWIQKKPGQAPRGLIGGTKFLAPGTPARFSGSLEGGKAALTLSGVQPEDEAEYYCVLYYSNRWVFGSGTKLTVL |  |  | no binding (tested: 5 µg/mL) | 0.0015 nM | 0.245 nM |  |  |  |  |  |  |  |
| CH3 15-E11 CC×I2L×G4×scFc×G4×MS 15-B12 CC×I2L_GQ (SEQ ID NO 251) (bispecific antibody, single-chain multitargeting engager; also called F5Q) QVQLVQSGAEVKKPGASVKVSCKASGYTFTNYWMNWVRQAPGQCLEWMGNIAYGVKGTNYNQKFQGRVTMTVDTSSSTAYMELSRLRSDDTAVYYCATRYFYVMDYWGQGTLVTVSSGGGGQGGGGQGGGGQDIQMTQSPSSLSASVGDRVTITCRASQDISNYLNWYQQKPGKVPKLLIYYTSRLHSGVPSRFSGSGSGTDFTLTISSLQPEDVATYYCVQYAQFPLTFGCGTKVEIKSGGGGQEVQLVESGGGLVQPGGSLKLSCAASGFTFNKYAMNWVRQAPGKGMEWVARIRSKYNNYATYYADAVKDRFTISRDDSKNTLYLQMNNLKTEDTAVYYCVRAGNFGSSYISYFAYWGQGTLVTVSSGGGGQGGGGQGGGGQQTVVTQEPSLTVSPGGTVTITCGSSTGAVTSGNYPNWIQKKPGQAPRGLIGGTKFLAPGTPARFSGSLEGGKAALTLSGVQPEDEAEYYCVLYYSNRWVFGSGTKLTVLGGGGCPPCPAPELLGGPSVFLFPPKPKDTLMISRTPEVTCVVVDVSHEEPEVKFNWYVDGVEVHNAKTKPCEEQYGSTYRCVSVLTVLHQDWLNGKEYKCKVSNKALPAPIEKTISKAKGQPREPQVYTLPPSREEMTKNQVSLTCLVKGFYPSDIAVEWESNGQPENNYKTTPPVLDSDGSFFLYSKLTVDKSRWQQGNVFSCSVMHEALHNHYTQKSLSLSPGKGGGGQGGGGQGGGGQGGGGQGGGGQGGGGQCPPCPAPELLGGPSVFLFPPKPKDTLMISRTPEVTCVVVDVSHEEPEVKFNWYVDGVEVHNAKTKPCEEQYGSTYRCVSVLTVLHQDWLNGKEYKCKVSNKALPAPIEKTISKAKGQPREPQVYTLPPSREEMTKNQVSLTCLVKGFYPSDIAVEWESNGQPENNYKTTPPVLDSDGSFFLYSKLTVDKSRWQQGNVFSCSVMHEALHNHYTQKSLSLSPGKGGGGQVQLQESGPGLVKPSETLSLTCTVSGGSISSSSYFWGWIRQPPGKCLEWIGNIYYSGSSNYNPSLKSRVTISVDTSKNQFSLKLSSVTAADTAVYYCARLPRGDRDAFDIWGQGTMVTVSSGGGGQGGGGQGGGGQDIVMTQSPSSLSASVGDRVTITCRASQGISNYLAWYQQKPGKVPKLLIYAASTLQSGVPSRFSGSGSGTDFTLTISSLQPEDFATYYCQQSYSTPFTFGCGTKVEIKSGGGGQEVQLVESGGGLVQPGGSLKLSCAASGFTFNKYAMNWVRQAPGKGMEWVARIRSKYNNYATYYADAVKDRFTISRDDSKNTLYLQMNNLKTEDTAVYYCVRAGNFGSSYISYFAYWGQGTLVTVSSGGGGQGGGGQGGGGQQTVVTQEPSLTVSPGGTVTITCGSSTGAVTSGNYPNWIQKKPGQAPRGLIGGTKFLAPGTPARFSGSLEGGKAALTLSGVQPEDEAEYYCVLYYSNRWVFGSGTKLTVL |  |  | no binding (tested: 5 µg/mL) |  |  | 0.322 nM | 0.341 nM | 0.098 nM | 3.24 nM | 3.24 nM | 0.0087 nM | 0.0087 nM |
